Measurements taken from patent US20110123529A1 (published 2011).

T1: active catalytic domain of MMP 1 (UniProt P03956 100-269, limits assumed)
T1 construct: domain: catalytic domain
T1 sequence (looked up): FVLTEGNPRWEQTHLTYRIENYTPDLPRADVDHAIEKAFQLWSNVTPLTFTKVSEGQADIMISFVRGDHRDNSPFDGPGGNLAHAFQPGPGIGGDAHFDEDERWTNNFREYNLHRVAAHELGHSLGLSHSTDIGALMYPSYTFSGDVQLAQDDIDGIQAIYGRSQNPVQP

T2: active catalytic domain of MMP 7 (UniProt P09237 95-267)
T2 construct: domain: catalytic domain
T2 sequence (looked up): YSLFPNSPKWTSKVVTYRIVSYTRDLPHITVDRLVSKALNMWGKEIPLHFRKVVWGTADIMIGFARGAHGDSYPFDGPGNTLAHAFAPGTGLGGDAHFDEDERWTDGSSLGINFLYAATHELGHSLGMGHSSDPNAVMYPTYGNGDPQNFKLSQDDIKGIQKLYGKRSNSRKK


Columns and labels:
[1] = molecular target: T1, active catalytic domain of MMP 1; assay: dot blot, 50 ng catalytic domain on Hybond C-extra, periplasmic extract, anti-c-myc detection
Description: (§1) In order to check for non specific binding to other MMPs a similar approach was followed in which 50 ng of active catalytic domain of MMP 1, 2, 3, 7, 9 and 13 (all from Biomol Research laboratories Inc) was immobilized on Hybond C-extra. The membranes were blocked with skimmed milk overnight at 4° C., washed 5 times with PBS and transferred to 1.5 ml tubes. Periplasmic extracts (100 μl) were tenfold diluted in 1% skimmed milk and 1 ml was applied per membrane (2 cm²) and rotated for 1 hour at room temperature. Membranes were washed 5 times with PBS/0.05% Tween-20. Detection was performed using anti-c-myc antibody, followed by anti-mouse-HRP and DAP as substrate. Membranes were incubated with substrate at room temperature until clear spots were visible.

[2] = molecular target: T3, active catalytic domain of MMP 2 (UniProt P08253 110-452, limits assumed); assay: as above
T3 construct: domain: catalytic domain
Description: as §1

[3] = molecular target: T4, active catalytic domain of MMP 3 (UniProt P08254 100-272, limits assumed); assay: as above
T4 construct: domain: catalytic domain
Description: as §1

[4] = molecular target: T2, active catalytic domain of MMP 7; assay: as above
Description: as §1

[5] = molecular target: T5, active catalytic domain of MMP 9 (UniProt P14780 107-444, limits assumed); assay: as above
T5 construct: domain: catalytic domain
Description: as §1

[6] = molecular target: active catalytic domain of MMP 13 (UniProt P45452 104-274); assay: as above
Description: as §1

[7] = molecular target: T6, human MMP-12 catalytic domain (human, UniProt P39900 106-263); assay: ELISA / dot blot on immobilized human MMP-12 catalytic domain, periplasmic extract, anti-c-myc detection
T6 construct: domain: catalytic domain; Sources: Prof; H. Tschesche (Universität Bielefeld) and Biomol Research laboratories Inc (SE 138-9090); also called human macrophage elastase
Description: To examine the clones selected using solid phase coated human MMP-12, plates were coated with human MMP-12 catalytic domain at a concentration of 1 μg/ml overnight at 4° C. Plates were washed 5 times with PBS/0.05% Tween-20. Wells were blocked with 1% skimmed milk for 2 hrs at room temperature. Periplasmic extracts (100 μl) were applied to the wells and incubated for 1 hour at room temperature. Plates were washed 5 times with PBS/0.05% Tween-20. Detection was performed using anti-c-myc antibody, followed by anti-mouse-HRP and ABTS/H₂O₂ as substrate. Plates were read at 405 nm after 30 minutes incubation at room temperature.
To examine the clones selected using membrane immobilized human MMP-12, 50 ng human MMP-12 catalytic domain samples were spotted on PVDF membrane as described in the manufacturers guidelines. 50 ng lysozyme was spotted as a negative control. The membranes were blocked with skimmed milk overnight at 4° C., washed 5 times with PBS and transferred to 1.5 ml tubes. Periplasmic extracts (100 μl) were tenfold diluted in 1% skimmed milk and 1 ml was applied per membrane (2 cm²) and rotated for 1 hour at room temperature. Membranes were washed 5 times with PBS/0.05% Tween-20. Detection was performed using anti-c-myc antibody, followed by anti-mouse-HRP and DAP as substrate. Membranes were incubated with substrate at room temperature until clear spots were visible.

[8] = molecular target: T7, human EGFR expressed on cells (Her-14 mouse fibroblasts; A431 carcinoma cells) (human, UniProt P00533 25-1210); assay: phage ELISA on cells
T7 construct: whole, on cells; Parental NIH3T3 clone 2.2 (3T3) cells served as EGFR-negative control; also called EGFR^+ cells

[9] = molecular target: T8, human TNF-alpha (human, UniProt P01375 77-233); assay: competition ELISA: VHH preincubated with biotinylated TNF-alpha, binding to immobilized receptor extracellular domain
T8 construct: also called TNFα; biotinylated TNF-alpha
Description: 100 μl of this mixture was transferred to a well of a microtiter plate, in which the extracellular domain of the receptor was immobilized.

binding result [1] | binding result [2] | binding result [3] | binding result [4] | binding result [5] | binding result [6] | binding result [7] | binding result [8] | binding result [9] | Binder
no binding | no binding | no binding | no binding | no binding | no binding | binds |  |  | MMP-12 P1-44 (VHH, Tested as periplasmic extract, detected through its c-myc tag) VHH: QVQLQESGGGLVQPGGSLRLSCAASGFTFNNHWLYWVRQAQGKGLEWVSAINPGGSTVYLDSVKGRFTISRGNTKNTLYLQMNSLKSEDTAVYYCTKAMAWATDWDEYDLWGQGTQVTVSS
 |  |  |  |  |  |  | binds |  | EGFR-B11 (VHH, From the internalization selection) VHH: QVQLQDSGGGLVQAGGSLRLSCAASRFSSAQYAIGWFRQAPGKEREGVSYITFSGGPTGYADSVKGRFTVSRDNAKNTVYLQMNSLKPEDTAVYYCAARPYTRPGSMWVSSLYDNWGQGTQVTVSS
 |  |  |  |  |  |  | binds |  | EGFR-F11 (VHH, From the internalization selection; also called clone EGFR-F11) VHH: QVQLQESGGRLVQAGGSLRLSCAASEHTFRGYAIGWFRQAPGKEREFVSSITYDGTLTNYADSVTGRFTISRDNAKNTVYLQMNSLKPEDTAVYVCAAGYSYRYTTLNQYDSWGQGTQVTVSS
 |  |  |  |  |  | binds |  |  | MMP-12 P5-29 (VHH, Selected on active MMP-12 on nitrocellulose (Hybond-C); also called clone P5-29) VHH: QVQLQESGGGLVQAGGSLRLSCAASGRTFTVYTTGWFRQAPGKEREFVAAIDWSGSSTYYTDSVKGRFTISRDNTKNTVYLQMNSLKPEDTAVYYCAARDAIVGVTDTSGYRYWGQGTQVTVSS
no binding | no binding | no binding | no binding | no binding | no binding | binds |  |  | MMP-12 P1-1 (VHH, Tested as periplasmic extract, detected through its c-myc tag (pAX004: c-myc and hexahistidine tags)) VHH: QVQLQESGGGLVQPGGSLRLSCVASGFTFSDYPMAWVRQAPGKGLEWISVINSGGVNTSYAASVKGRFTISRDNAKNTLFLQMNSLKPEDTAVYYCAKYSLKNEQYWRGQGTQVTVSS

Continued, binder first:

Binder | binding result [1] | binding result [2] | binding result [3] | binding result [4] | binding result [5] | binding result [6] | binding result [7] | binding result [8] | binding result [9]
MMP-12 P1-26 (VHH, Tested as periplasmic extract, detected through its c-myc tag) VHH: QVQLQESGGGLVRAGGSLRLSCVASGRTLSKYRMGWFRQFPGKERELVAEIEWKSSSTWYRDSVKGRFTISRDNAKNTVYLRMNSLKPEDTAVYYCAAATLGEPLVKYTYWGQGTQVTVSS | no binding | no binding | no binding | no binding | no binding | no binding | binds |  | 
MMP-12 P1-41 (VHH, Tested as periplasmic extract, detected through its c-myc tag) VHH: QVQLQDSGGGLVRTGDSLRLSCVVFGGTISTYAMGWFRRAPGKEREFVAAIDASGGFTEYADSVRGRFRIARDNPLSAVYLQMNSLKPEDTAFYYCAADKDRDTVVRFTTTPNEYDYWGQGTQVTVSS | no binding | no binding | no binding | no binding | no binding | no binding | binds |  | 
VHH#3E-His tag (VHH, protein was purified by IMAC; also called TNF3E; VHH TNF3E) VHH: QVQLQESGGGLVQPGGSLRLSCAASGRTFSDHSGYTYTIGWFRQAPKEREFVARIYWSSGNTYYADSVKGRFAISRDIAKNTVDLTMNNLEPEDTAVYYCAARDGIPTSRSVESYNYWGQGTQVTVSS |  |  |  |  |  |  |  |  | binds
